Data published in patent US20220017615A1.
One block for each substance: values may come before it.

How the values were obtained:
[1] = molecular target: SIRPα protein with hFc tag (SIRPα-hFc) (UniProt P78324); assay: ELISA on coated SIRPα-hFc 1 µg/mL; control 1 µg/ml
[2] = molecular target: SIRPα protein with hFc tag (SIRPα-hFc) (UniProt P78324); assay: ELISA on coated SIRPα-hFc 1 µg/mL; control 0.2 µg/ml
[3] = molecular target: SIRPα protein with hFc tag (SIRPα-hFc) (UniProt P78324); assay: ELISA on coated SIRPα-hFc 1 µg/mL; control 0.04 µg/ml
[4] = molecular target: SIRPα protein with hFc tag (SIRPα-hFc) (UniProt P78324); assay: ELISA on coated SIRPα-hFc 1 µg/mL; control 0.008 µg/ml
[5] = molecular target: SIRPα protein with hFc tag (SIRPα-hFc) (UniProt P78324); assay: ELISA on coated SIRPα-hFc 1 µg/mL; control 0.0001 µg/ml
[6] = molecular target: SIRPα protein with hFc tag (SIRPα-hFc) (UniProt P78324); assay: ELISA on coated SIRPα-hFc 1 µg/mL; control 0.0003 µg/ml
[7] = molecular target: SIRPα protein with hFc tag (SIRPα-hFc) (UniProt P78324); assay: ELISA on coated SIRPα-hFc 1 µg/mL; control 0.0016 µg/ml
[8] = molecular target: SIRPα protein with hFc tag (SIRPα-hFc) (UniProt P78324); assay: ELISA on coated SIRPα-hFc 1 µg/mL; control 0.00001 µg/ml
[9] = molecular target: human CD47, full length, on transfected cells (human) (UniProt Q08722); assay: FACS, HEK293 clone 293F-hCD47 1A8
[10] = molecular target: human CD47, full length, on transfected cells (human) (UniProt Q08722); assay: FACS, HEK293 clone 293F-hCD47 1B4
[11] = molecular target: human CD47, full length, on transfected cells (human) (UniProt Q08722); assay: FACS, HEK293 clone 293F-hCD47 1B5
[12] = molecular target: human CD47, full length, on transfected cells (human) (UniProt Q08722); assay: FACS, HEK293 clone 293F-hCD47 1B6
[13] = molecular target: human CD47, full length, on transfected cells (human) (UniProt Q08722); assay: FACS, HEK293 clone 293F-hCD47 1B8
[14] = molecular target: human CD47, full length, on transfected cells (human) (UniProt Q08722); assay: FACS, HEK293 clone 293F-hCD47 1C2
[15] = molecular target: human CD47, full length, on transfected cells (human) (UniProt Q08722); assay: FACS, HEK293 clone 293F-hCD47 1C4
[16] = molecular target: human CD47, full length, on transfected cells (human) (UniProt Q08722); assay: FACS, HEK293 clone 293F-hCD47 1C8
[17] = molecular target: human CD47, full length, on transfected cells (human) (UniProt Q08722); assay: FACS, HEK293 clone 293F-hCD47 1E8
[18] = molecular target: human CD47, full length, on transfected cells (human) (UniProt Q08722); assay: FACS, HEK293 clone 293F-hCD47 1F6
[19] = molecular target: human CD47, full length, on transfected cells (human) (UniProt Q08722); assay: FACS, HEK293 clone 293F-hCD47 1F8
[20] = molecular target: human CD47, full length, on transfected cells (human) (UniProt Q08722); assay: FACS, HEK293 clone 293F-hCD47 2E2
[21] = molecular target: human CD47, full length, on transfected cells (human) (UniProt Q08722); assay: FACS, HEK293 clone 293F-hCD47 1B11
[22] = molecular target: human CD47, full length, on transfected cells (human) (UniProt Q08722); assay: FACS, HEK293 clone 293F-hCD47 1D10
[23] = molecular target: human CD47, full length, on transfected cells (human) (UniProt Q08722); assay: FACS, HEK293 clone 293F-hCD47 1F10
[24] = molecular target: human CD47, full length, on transfected cells (human) (UniProt Q08722); assay: FACS, HEK293 clone 293F-hCD47 1F11

Chain of SIRPα protein with hFc tag (SIRPα-hFc) (P78324 31-370): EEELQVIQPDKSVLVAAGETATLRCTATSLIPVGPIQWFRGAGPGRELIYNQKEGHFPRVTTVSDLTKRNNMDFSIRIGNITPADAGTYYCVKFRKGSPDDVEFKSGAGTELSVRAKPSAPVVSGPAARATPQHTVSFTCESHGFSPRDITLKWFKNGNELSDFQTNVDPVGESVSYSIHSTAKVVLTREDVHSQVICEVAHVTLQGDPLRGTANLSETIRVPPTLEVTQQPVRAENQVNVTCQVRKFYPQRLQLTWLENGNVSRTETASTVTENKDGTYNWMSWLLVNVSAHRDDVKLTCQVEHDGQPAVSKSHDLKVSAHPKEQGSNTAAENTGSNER

OD450 nm [1]: 0.19
OD450 nm [2]: 0.11
OD450 nm [3]: 0.1
OD450 nm [4]: 0.06
OD450 nm [5]: 0.07
OD450 nm [6]: 0.07
OD450 nm [7]: 0.08
OD450 nm [8]: 0.06
Substance: Control protein (non-CD47 fusion protein)

Mean fluorescence intensity [9]: 3.2
Positive cells (%) [9]: 2.19%
Mean fluorescence intensity [10]: 2.56
Positive cells (%) [10]: 1.6%
Mean fluorescence intensity [11]: 2.72
Positive cells (%) [11]: 0.85%
Mean fluorescence intensity [12]: 3.22
Positive cells (%) [12]: 5.7%
Mean fluorescence intensity [13]: 3.11
Positive cells (%) [13]: 3.08%
Mean fluorescence intensity [14]: 2.47
Positive cells (%) [14]: 1.85%
Mean fluorescence intensity [15]: 3.84
Positive cells (%) [15]: 2.55%
Mean fluorescence intensity [16]: 2.15
Positive cells (%) [16]: 0.81%
Mean fluorescence intensity [17]: 2.79
Positive cells (%) [17]: 1.29%
Mean fluorescence intensity [18]: 2.94
Positive cells (%) [18]: 2.35%
Mean fluorescence intensity [19]: 2.66
Positive cells (%) [19]: 3.13%
Mean fluorescence intensity [20]: 2.79
Positive cells (%) [20]: 2.42%
Mean fluorescence intensity [21]: 2.87
Positive cells (%) [21]: 4.7%
Mean fluorescence intensity [22]: 3.19
Positive cells (%) [22]: 2.38%
Mean fluorescence intensity [23]: 3.64
Positive cells (%) [23]: 3.85%
Mean fluorescence intensity [24]: 3.73
Positive cells (%) [24]: 3.78%
Substance: IgG subtype control (antibody)
